US8703708 (CINCINNATI CHILDREN S HOSPITAL MEDICAL CENTER, dated 2014)

Tests used:
[1] = target: T1, Lrp5 (endogenous, in mouse kidney) (mouse, UniProt Q91VN0 31-1614); test: Western blot for S-tag proteins in whole d5 post I/R kidney from mice treated with Dkk2-C2
T1 construct: whole, on cells; Endogenous receptor in whole d5 post I/R kidney; The complex was detected in kidney lysate by Western blot; also called Lipoprotein receptor like protein 5
Description: (§1) For detection of Dkk2-C2, western blots of 50μg of whole kidney protein lysate per lane were incubated with anti-S-tag antibodies (1:500, BD Biosciences) followed by secondary HRP conjugated antibodies. After detection and stripping blots were re-detected with anti-beta-actin (1:1000, Santa Cruz Biotechnology). The purified recombinant Dkk2C contained only one single band in SDS-PAGE.
(§2) This C2 recombinant form of Dkk2 was administered from d0 to WT mice that were uninjured or which had kidney injury. Kidneys were harvested on day 2 and day 7 after injury and assessed quantitatively for injury. […] After detection and stripping blots were re-detected with anti-beta-actin (1:1000, Santa Cruz Biotechnology). […] When systemic delivery of Dkk2 was delayed until after peak injury at d1, it was nevertheless detectable in the kidney (FIG. 5G) and it retained the capacity to improve kidney function as assessed by plasma creatinine levels (FIG. 5D). […] To understand whether Dkk2 was functioning to augment the canonical pathway, Wnt signalling in kidney cortex of d5 post I/R mice was assessed by detection of phosphorylated Lrp6 since canonical signalling requires phosphorylation of this co-receptor (Zeng et al., Nature 438(7069):873-877 (in eng) (2005)) (FIG. 5E). pLrp6 was not detected in healthy adult kidney cortex (FIG. 1G) but was robustly detected in kidney cortex following injury.

[2] = target: T2, Lrp6 (endogenous, in mouse kidney) (mouse, UniProt O88572 20-1613); test: as above
T2 construct: whole, on cells; Endogenous receptor in whole d5 post I/R kidney or kidney cortex; also called Lipoprotein receptor like protein 6
T2 sequence (O88572 20-1613): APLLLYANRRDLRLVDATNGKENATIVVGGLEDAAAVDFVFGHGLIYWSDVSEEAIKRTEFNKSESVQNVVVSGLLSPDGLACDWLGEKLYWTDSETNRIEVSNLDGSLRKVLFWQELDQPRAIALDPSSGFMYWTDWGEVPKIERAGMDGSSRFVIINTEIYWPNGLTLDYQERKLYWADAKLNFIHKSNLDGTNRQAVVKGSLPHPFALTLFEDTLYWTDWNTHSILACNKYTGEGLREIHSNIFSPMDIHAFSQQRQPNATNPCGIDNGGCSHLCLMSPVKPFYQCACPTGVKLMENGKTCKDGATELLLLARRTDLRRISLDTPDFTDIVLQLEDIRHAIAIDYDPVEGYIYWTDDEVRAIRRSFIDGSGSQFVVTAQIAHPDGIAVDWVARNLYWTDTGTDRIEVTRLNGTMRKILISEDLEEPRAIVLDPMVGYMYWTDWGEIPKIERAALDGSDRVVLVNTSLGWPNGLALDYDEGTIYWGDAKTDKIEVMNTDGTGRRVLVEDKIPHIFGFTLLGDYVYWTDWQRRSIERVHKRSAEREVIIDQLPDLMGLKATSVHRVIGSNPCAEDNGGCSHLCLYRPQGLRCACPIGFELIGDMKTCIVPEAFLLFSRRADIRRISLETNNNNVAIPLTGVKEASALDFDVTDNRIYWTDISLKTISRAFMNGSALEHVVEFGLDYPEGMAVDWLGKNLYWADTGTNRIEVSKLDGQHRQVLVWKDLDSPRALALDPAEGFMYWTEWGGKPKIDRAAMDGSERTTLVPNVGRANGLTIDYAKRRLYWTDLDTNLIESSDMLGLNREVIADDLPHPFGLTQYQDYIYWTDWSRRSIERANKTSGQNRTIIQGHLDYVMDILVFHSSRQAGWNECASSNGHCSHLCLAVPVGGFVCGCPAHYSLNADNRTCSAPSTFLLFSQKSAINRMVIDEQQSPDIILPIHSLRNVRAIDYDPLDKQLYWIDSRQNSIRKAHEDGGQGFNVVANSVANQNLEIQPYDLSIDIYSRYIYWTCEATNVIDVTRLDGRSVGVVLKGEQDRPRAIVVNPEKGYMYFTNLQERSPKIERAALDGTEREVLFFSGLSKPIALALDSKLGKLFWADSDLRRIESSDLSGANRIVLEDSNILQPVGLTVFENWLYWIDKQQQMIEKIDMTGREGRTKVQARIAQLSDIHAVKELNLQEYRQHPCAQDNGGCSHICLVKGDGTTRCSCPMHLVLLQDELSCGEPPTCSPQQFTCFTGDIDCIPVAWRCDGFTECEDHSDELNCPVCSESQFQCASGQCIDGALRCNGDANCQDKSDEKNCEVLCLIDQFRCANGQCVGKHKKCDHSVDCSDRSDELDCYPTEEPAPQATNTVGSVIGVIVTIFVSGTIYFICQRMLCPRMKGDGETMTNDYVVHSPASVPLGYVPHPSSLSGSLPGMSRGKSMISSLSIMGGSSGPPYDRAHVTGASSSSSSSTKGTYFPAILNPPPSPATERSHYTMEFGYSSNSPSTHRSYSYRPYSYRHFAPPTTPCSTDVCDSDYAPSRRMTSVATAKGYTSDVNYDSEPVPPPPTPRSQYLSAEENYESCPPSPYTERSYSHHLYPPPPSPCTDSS
Description: as §1, §2

T1 sequence (Q91VN0 31-1614): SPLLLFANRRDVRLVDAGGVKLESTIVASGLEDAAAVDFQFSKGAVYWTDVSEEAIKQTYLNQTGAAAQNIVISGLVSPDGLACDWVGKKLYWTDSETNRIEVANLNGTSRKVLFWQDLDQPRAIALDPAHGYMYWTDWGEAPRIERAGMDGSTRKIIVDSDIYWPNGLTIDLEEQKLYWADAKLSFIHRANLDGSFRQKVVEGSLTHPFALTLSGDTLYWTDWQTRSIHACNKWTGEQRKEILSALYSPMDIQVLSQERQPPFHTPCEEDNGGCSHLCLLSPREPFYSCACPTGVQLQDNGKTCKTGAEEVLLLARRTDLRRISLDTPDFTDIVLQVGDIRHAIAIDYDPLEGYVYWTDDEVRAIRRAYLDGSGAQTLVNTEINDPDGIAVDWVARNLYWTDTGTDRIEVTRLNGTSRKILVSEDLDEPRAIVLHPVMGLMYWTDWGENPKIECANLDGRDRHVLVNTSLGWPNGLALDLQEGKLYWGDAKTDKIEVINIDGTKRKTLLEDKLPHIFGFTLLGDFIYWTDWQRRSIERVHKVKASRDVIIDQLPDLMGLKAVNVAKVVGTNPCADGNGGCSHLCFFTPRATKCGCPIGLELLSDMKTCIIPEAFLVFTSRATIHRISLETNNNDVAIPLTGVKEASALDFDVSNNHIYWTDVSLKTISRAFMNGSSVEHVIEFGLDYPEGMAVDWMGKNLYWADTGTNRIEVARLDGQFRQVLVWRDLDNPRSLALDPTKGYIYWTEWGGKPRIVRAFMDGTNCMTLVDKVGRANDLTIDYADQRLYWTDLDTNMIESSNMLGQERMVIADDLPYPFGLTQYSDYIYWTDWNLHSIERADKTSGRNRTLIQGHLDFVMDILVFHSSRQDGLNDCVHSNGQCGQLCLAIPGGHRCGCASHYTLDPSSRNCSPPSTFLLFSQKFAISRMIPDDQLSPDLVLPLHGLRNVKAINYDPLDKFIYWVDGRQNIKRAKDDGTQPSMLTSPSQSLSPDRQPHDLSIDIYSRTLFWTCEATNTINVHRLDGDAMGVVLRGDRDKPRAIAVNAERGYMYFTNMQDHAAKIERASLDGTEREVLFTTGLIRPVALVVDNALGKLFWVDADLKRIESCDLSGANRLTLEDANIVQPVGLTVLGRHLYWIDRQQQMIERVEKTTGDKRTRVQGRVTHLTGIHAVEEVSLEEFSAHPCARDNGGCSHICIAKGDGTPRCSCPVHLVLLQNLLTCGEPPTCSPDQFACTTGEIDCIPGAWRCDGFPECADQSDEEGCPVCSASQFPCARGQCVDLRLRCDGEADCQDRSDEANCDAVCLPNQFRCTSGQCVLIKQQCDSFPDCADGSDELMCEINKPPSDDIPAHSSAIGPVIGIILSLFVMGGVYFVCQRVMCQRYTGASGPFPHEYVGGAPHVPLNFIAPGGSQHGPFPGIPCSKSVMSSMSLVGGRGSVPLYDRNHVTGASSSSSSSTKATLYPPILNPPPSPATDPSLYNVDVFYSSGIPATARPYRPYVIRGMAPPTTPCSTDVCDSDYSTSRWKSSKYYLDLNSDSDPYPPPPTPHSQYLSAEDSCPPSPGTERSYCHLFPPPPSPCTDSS

binding result [1]: binds
binding result [2]: binds
B1: recombinant protein Dkk2C (amino acids Met172-Ile259 of mouse Dkk2) with N-terminal S tag and thrombin cleavage site (ligand)
chain: MPHIKGHEGDPCLRSSDCIDGFCCARHFWTKICKPVLHQGEVCTKQRKKGSHGLEIFQRCDCAKGLSCKVWKDATYSSKARLHVCQKI
notes: Expressed in E. coli; Detected in kidney lysate with anti-S-tag antibodies, so the S tag was still on the protein; also called Dkk2-C2; D2C2; not shown: N-terminal S tag; thrombin cleavage site between the S tag and Dkk2C
